The record followed here is PMC9325753, “Chilling-induced phosphorylation of IPA1 by OsSAPK6 activates chilling tolerance responses in rice”.

Numbering of substitutions follows the chain as printed.

This data set has as its target T1, GST-IPA1 (Oryza sativa, UniProt Q7EXZ2 1-417).
T1 sequence: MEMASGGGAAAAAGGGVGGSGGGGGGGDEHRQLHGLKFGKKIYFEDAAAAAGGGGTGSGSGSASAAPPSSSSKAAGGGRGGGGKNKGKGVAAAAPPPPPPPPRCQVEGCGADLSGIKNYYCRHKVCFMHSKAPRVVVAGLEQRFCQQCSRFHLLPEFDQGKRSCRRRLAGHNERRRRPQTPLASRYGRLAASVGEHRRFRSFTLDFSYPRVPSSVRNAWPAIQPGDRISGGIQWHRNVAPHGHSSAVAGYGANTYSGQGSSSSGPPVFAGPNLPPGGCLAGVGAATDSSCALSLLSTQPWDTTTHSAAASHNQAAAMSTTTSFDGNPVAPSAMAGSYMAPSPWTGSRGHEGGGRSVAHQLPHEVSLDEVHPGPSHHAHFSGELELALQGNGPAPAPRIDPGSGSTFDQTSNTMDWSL
As to the kind of experiment: EMSA; LightShift Chemiluminescent EMSA Kit (Thermo 20148) per manufacturer; buffer, salt, pH and temperature not stated. To be noted: protein: recombinant; tags: N-terminal GST (pGEX-4t-1); label: 5'-biotin on strand 1; blunt.

B1: Biotin-P2 (OsCBF3 promoter) (dsDNA)
DNA 1: TACCTAGGTTTTAAGTTATAGTACTTACAATTTTTTGATGAG
DNA 2: CTCATCAAAAAATTGTAAGTACTATAACTTAAAACCTAGGTA
Turning to B1, the binding result is “binds”.

B2: Biotin-P2-m (GTAC to ATAC) (dsDNA)
DNA 1: B1 DNA 1 with G21A
DNA 2: B1 DNA 2 with C22T
With B2, the binding result is on record as “no binding”.
